# Test: yeast display, Sf9 membrane polyspecificity reagent, FACS + sequencing; frameworks hold sequencing errors
# How it was run: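 Sorting gates, low and high (top ~1%), were placed on anti-HA fluorescence to track expression and on streptavidin fluorescence to track reagent binding. A clone's polyreactivity label is taken from the gate it came out of. The reagent was 10% biotinylated, detergent-solubilized Sf9 membrane, applied for 1 hour at 4 °C to galactose-induced yeast display cells.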
row,Sequence,polyreactivity (PSR sort gate)
1,QVQLVESGGGLVQAGGSLRLSCAASGSILDTNAMGWYRQAPGKERELVARIDIDGSTNYADSVKGRFTISRDNAKNTVYLQMNSLKPEDTAVYYCNKDHSSYGASGYDYWGQGTQVTVSS,low polyreactivity
2,QVQLVESGGGLVQAGGSLRLSCAASGSILEIYAMGWYRQAPGKEREFVASISWDVSSTYYADSVKGRFTISRDNAKNTVYLQMNSLKPEDTAVYYCATSLVWGLYDWYYDLSAAFDYWGQGTQVTVSS,low polyreactivity
3,QVQLVESGGGLVQAGGSLRLSCAASGSILESIVMGWYRQAPGKERELVASISSSGDSSYADSVKGRFTISRDNAKNTVYLQMNSLKPEDTAVYYCAADRWYWTYALYYWGQGTQVTVSS,low polyreactivity
4,QVQLVESGGGLVQAGGSLRLSCAASGSILESNVMGWYRQAPGKERELVASISSSGDSTYADSVKGRFTISRDNAKNTVYLQMNSLKPEDTAVYYCAADAPGADFDYWGQGTQVTVSS,low polyreactivity
5,QVQLVESGGGLVQAGGSLRLSCAASGSILFNNAMGWYRQAPGKERELVAAIRSNGGNTYYADSVKGRFTISCDNAKNTVYLQMNSLKPEDTAVYYCAAEKTLYGGGGWTRWFHYTYGYWGQGTQVTVSS,high polyreactivity
6,QVQLVESGGGLVQAGGSLRLSCAASGSILFSYAMGWYIQAPGKEREFVAAITFSGGRTYYADSVKGRFTISRDNAKNTVYLQMNSLKPEDTAVYYCAASYLLIYTQGYRAEYEYWGQGTQVTVSS,low polyreactivity
7,QVQLVESGGGLVQAGGSLRLSCAASGSILFSYAMGWYRQAPGKERELVAAINRGDGNTYADSVKGRFTISRDNAKNTVYLQMNSLKPEDTAVYYCNADLFPGYVSYPEYDYWGQGTQVTVSS,low polyreactivity
8,QVQLVESGGGLVQAGGSLRLSCAASGSILGGNAMGWYRQAPGKERELVAANTFSGGGTYYADSVKGRFTISRDNAKNTVYLQMKSLKPEDTAVYYCNADYKSTVFRYSGSRNYWGQGTQVTVSS,low polyreactivity
9,QVQLVESGGGLVQAGGSLRLSCAASGSILGHYAMGWYRQAPGTERELVAAISWSGGSTYYADSVKGRFTISRDNAKNTVYLQMNSLKPEDTAVYYCNAAAILYTSDGSLYWYDYWGQGTQVTVSS,low polyreactivity
10,QVQLVESGGGLVQAGGSLRLSCAASGSILGINVMGWYRQAPGKERELVAAISWRGGRTYYADSVKGRFTISRDNAKNTVYLQMNSLKPEDTAVYYCAAYFYSTSYGADRGVDYWGQGTQVTVSS,high polyreactivity
11,QVQLVESGGGLVQAGGSLRLSCAASGSILGPYAMGWYRQAPGKERELVAANSQSGARTYYADSVKGRFTISRDNAKNTVYLQMNSLKPEDTAVYYCAAQSRKGGWSAYYYWGQGTQVTVSS,high polyreactivity
12,QVQLVESGGGLVQAGGSLRLSCAASGSILGQNAMGWSRQAPGKEREWVAAIRSSGGSTYYADSVKGRFTISRDNAKNTVYLQMNSRNPEDTAVYYCADDYYTSADYVDYYYWGQGTQVTVSS,low polyreactivity
13,QVQLVESGGGLVQAGGSLRLSCAASGSILGRYAMGWYRQAPGKERELVAAISYRGGSTYYADSVKGRFTISRDNAKNTVYLQMNSLKPEDTAVYYCATRDPAFYRRYDYWGQGTQVTVSS,high polyreactivity
14,QVQLVESGGGLVQAGGSLRLSCAASGSILGVYTMGWYRQAPGKERELVARIRLSGGSTYYADSVKGRFTISRDNAKNTVYLQMNSLIPEDTAVYYCAARYSRARFTDPYYYWGQGTQVTVSS,high polyreactivity
15,QVQLVESGGGLVQAGGSLRLSCAASGSILGYYVMGWYRQAPGKERELVAAISWSSGSTYYADSVKGRFTISRDNAKNTVYLQMNSLKPEDTAVYYCNASNVYFWFVTLEFDYWGQGTQVTVSS,low polyreactivity
16,QVQLVESGGGLVQAGGSLRLSCAASGSILIVYAMGWYRQAPGKERELVAAITRGGRTNYADSVKGRFTISRDYAKNTVYLQMNSLKPEDPAVYYCAAYTESYGGSDYDYWGQGTQVTVSS,high polyreactivity
17,QVQLVESGGGLVQAGGSLRLSCAASGSILKNNAMGWYRQAPGKERELVAAITYSSGSTYYADSVKGRFTISRDNAKNTVYLQMNILKPEDTAVYYCATDPEGSTGGGYEYWGQGTQVTVSS,low polyreactivity
18,QVQLVESGGGLVQAGGSLRLSCAASGSILKSNAMGGSRQAPGKARELVAANSSSGDSTYYADSVKGRFTISRDNAKNTVYLQMHSLKPADTAVYSCAARLRGRTRTGYYWGQGTQVTVSS,high polyreactivity
19,QVQLVESGGGLVQAGGSLRLSCAASGSILLEYAMGWYRQAPGKERELVAAISRGGTTNYADSVKGRFTISRDNAKNTVYLQMNSLKPEDTAVYYCAAGKIGRRGHQNRLDLDYWGQGTQVTVSS,low polyreactivity
20,QVQLVESGGGLVQAGGSLRLSCAASGSILNLNAMGWYRQAPGKERELVAAIRGGGRTNYADSVKGRFTISRDNAKNTVYLQMNSLKPEDTAVYYCAARITRPLTGYDYWGQGTQVTVSS,high polyreactivity
21,QVQLVESGGGLVQAGGSLRLSCAASGSILNSYAMGWYRQAPVKERELVARITGDGGITYYADSVKGRFTISRDNAKNTVYLQMNSLKPEDTAVYYCNAEVVALRRDTIYDYWGQGTQVTVSS,low polyreactivity
22,QVQLVESGGGLVQAGGSLRLSCAASGSILPGNTMGWYRQAPGKERELVASISNTGGNTYYADSVKGRFTISRDNAKNTVYLQMNSLKPEDTAVYYCAARFSLWFPTVYWEGILDYWGQGTQVTVSS,low polyreactivity

row,Sequence,polyreactivity (PSR sort gate)
1,QVQLVESGGGLVQAGGSLRLSCAASGSILPLYAMGGYRQAPGKERELVATISNAGSTTYADSVKGRFTISRDNAKNTVYLQMNSLKPEVTAVYYCNAESEWGWVYVGYDYWGQGTQVTVSS,low polyreactivity
2,QVQLVESGGGLVQAGGSLRLSCAASGSILPVYAMGWYRQAPGKERELVAAISVSGGSTRYADSVKGRFTISRDNAKNTVYLQMNSLKPEDTAVYYCAARYRYSYGYWGQGTQVTVSS,high polyreactivity
3,QVQLVESGGGLVQAGGSLRLSCAASGSILPVYVMGWYRQAPGKERELVAAISSGGSTTYADSVKGRFTISRDNAKNTVYLQMNSLKPEDTAVYYCNADVVRGYSYIYRWPFRYAYDYWGQGTQVTVSS,low polyreactivity
4,QVQLVESGGGLVQAGGSLRLSCAASGSILQPNAMGWYRQAPGKERELVASITFSAGRTYYADSVKVRFTISRDNAKNTVYLQMNCLKPEDTAVYYCKAASDYRSSDYDYWGQGTQVTVSS,low polyreactivity
5,QVQLVESGGGLVQAGGSLRLSCAASGSILREYTMGWSRQAPGKEMELVAAITYSGDSTYYADSVKGRFTISRDNAKNTVYLHMNSLKPEDTAVYYCNKKYRSRWQGPFDYWGQGTLVTVSS,high polyreactivity
6,QVQLVESGGGLVQAGGSLRLSCAASGSILRPNAMGWYRQAPGKERELVAAITTSGGSTYYADSVKGRFTISRDNAKNTVYLQMNSLKPEDTAVYYCAARRQRDRYGYWGQGTQVTVSS,high polyreactivity
7,QVQLVESGGGLVQAGGSLRLSCAASGSILRRYAMGWYRQAPGKEREFVAAISYSGSRTYYADSVKGRFTISRDNAKNTVYLQMNSLKPEDTAVYFCAADSYGSRYEYWGQGTQVTVSS,high polyreactivity
8,QVQLVESGGGLVQAGGSLRLSCAASGSILRVYAMGWYRQAPGKERELVAAISWGDGRTYYADSVKGRFTISRDNAKNTDYLQMNSLKPEDTAVYYCNADVFIQYWGVLIREYDYWGQGTQVTVSS,high polyreactivity
9,QVQLVESGGGLVQAGGSLRLSCAASGSILRYYAMGWYRQAPGKEREFVAAISWSGTSTYYADSVKGRFTISRDNAKNTVYLQMNSLKPEDTAVYYCAARTYYVPYYYWGQGTQVTVSS,high polyreactivity
10,QVQLVESGGGLVQAGGSLRLSCAASGSILSGYAMGWYRQAPGKERELVAAITSGGDTNYADSVKGRFTISRDNAKNTVYLQMNSLKPEDTAVYYCNRGGDFRIAYYDPMDYWGQGTQVTVSS,low polyreactivity
11,QVQLVESGGGLVQAGGSLRLSCAASGSILSSYAMGWYRQAPGKERELVAAISWRGGPTYYADSVKGRFTISRDNAKNTVYLQMNSLKPEDTAVYHCAAEFYDHPWLYDYWGQGTQVTVSS,low polyreactivity
12,QVQLVESGGGLVQAGGSLRLSCAASGSILSWYAMGWYRQAPGKERELVAAITGAGSTNYADSVKGRFTISRDNAKNTVYLQMNSLKPEDTAVYYCAADGSPWSWYSDGYWGQGTQVTVSS,low polyreactivity
13,QVQLVESGGGLVQAGGSLRLSCAASGSILSWYAMGWYRQAPGKERELVAAITGSGGTTYADSVKWRFTISRDNAKNTVYLQMNSLKPEDTAVYYCAADYLGIYDYWGQGTQVTVSS,high polyreactivity
14,QVQLVESGGGLVQAGGSLRLSCAASGSILSYNTMGWYRQAPGKEREFVAGITYSGSRTYYADSVKGRFTISRDNAKNPVYLQMNSLKPEDTAVYYCAAQYWQGDYDYWGQGTQVTVSS,high polyreactivity
15,QVQLVESGGGLVQAGGSLRLSCAASGSILSYYAMGWYRQAPGKERELVAAITGGGSTYYADSVKGRFTISRDNAKNTVYLQMNCLKPEVTAVYYCAALWWTYGIGYGYWGQGTLVTVSS,high polyreactivity
16,QVQLVESGGGLVQAGGSLRLSCAASGSILTDNAMRWYRQAPGKERELVAAITSGGSTYYADSVKGRFTISRDNAKNTVYLQMNSLKPEDTAVYYCNADPYTYSYGMYYWGQGTQVTVSS,low polyreactivity
17,QVQLVESGGGLVQAGGSLRLSCAASGSILTINAMGWYRQAPGKERELVAAITGNGGSTDYADSVKGRFTISRDTAKNTVYLQMNSLKPVDTAVYYCAARLYYFGRSGVKYRDGYWGQGTQVTVSS,high polyreactivity
18,QVQLVESGGGLVQAGGSLRLSCAASGSILTINAMGWYRQAPGKERELVARITISSGSTYYADSVKGRFTISRDNAKNTVYLQMNSLKPEDTAVYYCAVDTSYSDRYDYWGQGTQVTVSS,low polyreactivity
19,QVQLVESGGGLVQAGGSLRLSCAASGSILTRYAMGWYRQAPGKERELVAANTYSGDSTYYADSVKGRFTISRDNAKNTVYLQMNSLKPEDTAVYYCAARKYYARYYWGQGTQVTVSS,high polyreactivity
20,QVQLVESGGGLVQAGGSLRLSCAASGSILVQNAMGWYRQAPGKERELVAVINSGDSTNYADSVKGRFTISRDNAKNTVFLQMNSLKPEDTAVYYCAVDDVSYYYLRAYNYELSWYGSGLDYWGQGTQVTVSS,low polyreactivity
21,QVQLVESGGGLVQAGGSLRLSCAASGSILVSNDMGWYRQAPGKERELVAAISWSGGSTYYADSVKGRFTISRDNAKNTVYLQMNSLKPEDTAVYYCATGVALRYGYWGQGTQVTVSS,low polyreactivity
